Here are results for one substance from article PMC2668795.

The assay has as its target syntaxin1 (mouse (endogenous in brain synaptosomes)) (UniProt O35526). Kind of assay: co-IP; synaptosomes from wt, ASMko (7 months; also 1 month) or wt+Se mice, equal protein; 150 mM NaCl, 0.5% sodium deoxycholate, 1% NP40; syntaxin1 monoclonal antibody 4 h at 4°C, protein G sepharose beads overnight at 4°C; Western blot for syntaxin1, Munc18, SNAP25 and Vamp2. (Immunoblotting shows a protein as a band on a membrane.)
Sequence of UniProt O35526 (O35526 whole entry): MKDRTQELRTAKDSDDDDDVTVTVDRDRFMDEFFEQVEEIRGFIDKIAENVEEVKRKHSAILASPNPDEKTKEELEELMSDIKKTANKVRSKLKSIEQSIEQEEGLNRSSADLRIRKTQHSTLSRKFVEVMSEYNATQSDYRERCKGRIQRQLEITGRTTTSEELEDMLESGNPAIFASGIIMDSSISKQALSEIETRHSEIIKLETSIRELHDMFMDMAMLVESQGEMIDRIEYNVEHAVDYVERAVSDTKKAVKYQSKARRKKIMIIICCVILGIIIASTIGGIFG

With “Munc18 (from UniProt O08599 1-594) (natural protein)”, the fold change of Munc18 co-precipitated with syntaxin1, ASMko versus wt synaptosomes amounted to 1.9 fold.
